# According to article PMC9482650, “Quantitative fragmentomics allow affinity mapping of interactomes” (Nature Communications, 2022):
# T1: ARHGAP21, Q5T5U3
# T1 sequence (Q5T5U3 45-169, limits assumed, looked up): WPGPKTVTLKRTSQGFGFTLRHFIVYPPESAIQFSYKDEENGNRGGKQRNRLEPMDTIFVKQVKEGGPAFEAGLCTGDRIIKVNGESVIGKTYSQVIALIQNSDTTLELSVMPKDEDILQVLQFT
# T2: DFNB31_1, Q9P202
# T2 sequence (Q9P202 135-233, limits assumed, looked up): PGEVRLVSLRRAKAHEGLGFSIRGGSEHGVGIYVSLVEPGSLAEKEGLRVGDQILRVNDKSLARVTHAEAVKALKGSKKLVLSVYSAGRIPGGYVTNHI
# T3: DLG3_2, Q92796
# T3 sequence (Q92796 221-321, limits assumed, looked up): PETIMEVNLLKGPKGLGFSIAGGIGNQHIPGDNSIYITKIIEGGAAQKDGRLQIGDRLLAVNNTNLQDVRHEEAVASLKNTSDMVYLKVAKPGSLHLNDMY
# T4: DLG3_3, Q92796
# T4 sequence (Q92796 374-475, limits assumed, looked up): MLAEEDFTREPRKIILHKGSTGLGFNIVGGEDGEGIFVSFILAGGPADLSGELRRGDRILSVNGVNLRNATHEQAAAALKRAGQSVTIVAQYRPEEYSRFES
# T5: LRRC7, Q96NW7
# T5 sequence (Q96NW7 1440-1537, limits assumed, looked up): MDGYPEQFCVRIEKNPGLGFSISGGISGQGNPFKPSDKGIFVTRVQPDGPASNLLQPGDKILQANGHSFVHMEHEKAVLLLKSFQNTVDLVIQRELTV
# T6: MPP2, Q14168
# T6 sequence (Q14168 180-250, limits assumed, looked up): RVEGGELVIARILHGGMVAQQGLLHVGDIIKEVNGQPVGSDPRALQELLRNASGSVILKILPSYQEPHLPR
# T7: PTPN13_1, Q12923
# T7 sequence (Q12923 1088-1188, limits assumed, looked up): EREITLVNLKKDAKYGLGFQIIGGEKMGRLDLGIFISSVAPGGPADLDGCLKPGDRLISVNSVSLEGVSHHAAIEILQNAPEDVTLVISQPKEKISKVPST
# T8: SHANK1, Q9Y566
# T8 sequence (Q9Y566 658-767, limits assumed, looked up): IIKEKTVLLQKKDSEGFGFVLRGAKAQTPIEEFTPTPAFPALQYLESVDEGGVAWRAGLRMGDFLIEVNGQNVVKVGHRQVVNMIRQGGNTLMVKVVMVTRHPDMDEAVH
# T9: SIPA1L2, Q9P2F8
# T9 sequence (Q9P2F8 945-1036, limits assumed, looked up): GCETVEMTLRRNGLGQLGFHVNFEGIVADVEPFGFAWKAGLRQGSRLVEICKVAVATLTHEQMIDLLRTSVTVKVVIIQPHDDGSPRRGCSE
# T10: SNTG2, Q9NY99
# T10 sequence (Q9NY99 68-166, limits assumed, looked up): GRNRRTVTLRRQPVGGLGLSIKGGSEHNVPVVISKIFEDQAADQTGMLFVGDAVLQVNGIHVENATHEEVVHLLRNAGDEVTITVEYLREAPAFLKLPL
# T11: SYNJ2BP, P57105
# T11 sequence (P57105 8-110, limits assumed, looked up): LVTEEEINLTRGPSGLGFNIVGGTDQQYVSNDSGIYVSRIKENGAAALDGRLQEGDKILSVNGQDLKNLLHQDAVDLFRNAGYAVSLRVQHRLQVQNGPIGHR
# T12: TJP3_3, O95049
# T12 sequence (O95049 375-456, limits assumed, looked up): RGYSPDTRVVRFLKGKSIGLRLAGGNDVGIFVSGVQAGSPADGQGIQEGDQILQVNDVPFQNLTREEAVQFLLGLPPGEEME
# Legend:
# Assay in all cases: holdup assay
# Design in all cases: key: below the threshold = too weak to quantify, mostly under pKd 3.1 to 4
# Settings in all cases: plain residues with an end cap or a label only (N-terminal biotin on a linker: ttds)
# AHNAK1, Q09666 = biological target: AHNAK1, Q09666
# ARHGAP21, Q5T5U3 = biological target: T1, ARHGAP21, Q5T5U3
# DFNB31_1, Q9P202 = biological target: T2, DFNB31_1, Q9P202
# DLG2_2, Q15700 = biological target: DLG2_2, Q15700
# DLG3_2, Q92796 = biological target: T3, DLG3_2, Q92796
# DLG3_3, Q92796 = biological target: T4, DLG3_3, Q92796
# DLG4_2, P78352 = biological target: DLG4_2, P78352
# FRMPD3, Q5JV73 = biological target: FRMPD3, Q5JV73
# GRASP, Q7Z6J2 = biological target: GRASP, Q7Z6J2
# Inadl_6, Q8NI35 = biological target: Inadl_6, Q8NI35
# LNX1_2, Q8TBB1 = biological target: LNX1_2, Q8TBB1
# LRRC7, Q96NW7 = biological target: T5, LRRC7, Q96NW7
# MPP2, Q14168 = biological target: T6, MPP2, Q14168
# NHERF2_2, Q15599 = biological target: NHERF2_2, Q15599
# NHERF4_2, Q86UT5 = biological target: NHERF4_2, Q86UT5
# PDZRN4_1, Q6ZMN7 = biological target: PDZRN4_1, Q6ZMN7
# PTPN13_1, Q12923 = biological target: T7, PTPN13_1, Q12923
# PTPN3, P26045 = biological target: PTPN3, P26045
# SCRIB_1, Q14160 = biological target: SCRIB_1, Q14160
# SCRIB_2, Q14160 = biological target: SCRIB_2, Q14160
# SCRIB_3, Q14160 = biological target: SCRIB_3, Q14160
# SHANK1, Q9Y566 = biological target: T8, SHANK1, Q9Y566
# SIPA1L2, Q9P2F8 = biological target: T9, SIPA1L2, Q9P2F8
# SNTG2, Q9NY99 = biological target: T10, SNTG2, Q9NY99
# SYNJ2BP, P57105 = biological target: T11, SYNJ2BP, P57105
# TJP3_3, O95049 = biological target: T12, TJP3_3, O95049
# Sequence of SCRIB_3, Q14160 (Q14160 999-1103): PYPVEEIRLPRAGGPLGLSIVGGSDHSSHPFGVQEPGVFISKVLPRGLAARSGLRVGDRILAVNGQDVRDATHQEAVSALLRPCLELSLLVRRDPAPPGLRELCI
# Sequence of SCRIB_1, Q14160 (Q14160 718-814): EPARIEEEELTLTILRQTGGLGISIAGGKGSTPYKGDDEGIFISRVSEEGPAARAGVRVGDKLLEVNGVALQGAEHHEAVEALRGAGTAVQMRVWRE
# Sequence of DLG4_2, P78352 (P78352 155-259): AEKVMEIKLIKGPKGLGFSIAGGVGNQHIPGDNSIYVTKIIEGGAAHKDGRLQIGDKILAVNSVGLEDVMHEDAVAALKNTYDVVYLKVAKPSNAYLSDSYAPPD
# Sequence of AHNAK1, Q09666 (Q09666 4-100): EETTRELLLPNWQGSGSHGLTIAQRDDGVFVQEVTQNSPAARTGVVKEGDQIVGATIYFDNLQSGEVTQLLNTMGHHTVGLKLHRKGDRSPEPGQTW
# Sequence of PTPN3, P26045 (P26045 505-587): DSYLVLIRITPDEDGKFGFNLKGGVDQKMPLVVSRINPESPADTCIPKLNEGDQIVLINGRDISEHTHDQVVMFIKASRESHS
# Sequence of PDZRN4_1, Q6ZMN7 (Q6ZMN7 213-318): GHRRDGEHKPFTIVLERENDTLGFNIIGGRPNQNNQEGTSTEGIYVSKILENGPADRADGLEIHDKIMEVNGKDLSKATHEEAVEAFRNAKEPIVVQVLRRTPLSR
# Sequence of LNX1_2, Q8TBB1 (Q8TBB1 371-470): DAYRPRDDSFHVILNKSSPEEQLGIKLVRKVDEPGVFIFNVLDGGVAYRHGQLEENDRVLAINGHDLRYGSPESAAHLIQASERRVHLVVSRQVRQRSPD
# Sequence of NHERF4_2, Q86UT5 (Q86UT5 220-308): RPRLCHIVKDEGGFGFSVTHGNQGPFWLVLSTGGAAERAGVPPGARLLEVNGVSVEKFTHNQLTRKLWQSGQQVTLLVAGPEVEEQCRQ
# Sequence of FRMPD3, Q5JV73 (Q5JV73 12-100): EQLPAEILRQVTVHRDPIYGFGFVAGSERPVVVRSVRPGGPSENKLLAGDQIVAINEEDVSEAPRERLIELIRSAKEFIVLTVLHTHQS
# Sequence of SCRIB_2, Q14160 (Q14160 857-960): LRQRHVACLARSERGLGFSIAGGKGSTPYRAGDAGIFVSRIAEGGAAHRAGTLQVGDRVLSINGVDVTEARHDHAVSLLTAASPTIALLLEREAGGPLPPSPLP
# Sequence of NHERF2_2, Q15599 (Q15599 142-238): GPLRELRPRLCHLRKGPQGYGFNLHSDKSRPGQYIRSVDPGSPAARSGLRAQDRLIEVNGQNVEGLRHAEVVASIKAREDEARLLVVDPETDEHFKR
# Sequence of Inadl_6, Q8NI35 (Q8NI35 1058-1167): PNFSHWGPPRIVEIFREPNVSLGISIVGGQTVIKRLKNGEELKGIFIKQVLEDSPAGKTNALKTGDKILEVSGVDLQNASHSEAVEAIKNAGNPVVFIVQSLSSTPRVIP
# Sequence of GRASP, Q7Z6J2 (Q7Z6J2 96-193): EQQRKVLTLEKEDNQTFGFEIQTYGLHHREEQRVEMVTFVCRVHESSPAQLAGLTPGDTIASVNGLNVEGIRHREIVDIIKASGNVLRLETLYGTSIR
# Sequence of DLG2_2, Q15700 (Q15700 189-283): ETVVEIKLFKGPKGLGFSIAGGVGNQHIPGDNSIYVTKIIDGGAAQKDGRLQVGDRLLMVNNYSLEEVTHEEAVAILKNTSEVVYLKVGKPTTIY
Binder,"pKd (AHNAK1, Q09666)","pKd (ARHGAP21, Q5T5U3)","pKd (DFNB31_1, Q9P202)","pKd (DLG2_2, Q15700)","pKd (DLG3_2, Q92796)","pKd (DLG3_3, Q92796)","pKd (DLG4_2, P78352)","pKd (FRMPD3, Q5JV73)","pKd (GRASP, Q7Z6J2)","pKd (Inadl_6, Q8NI35)","pKd (LNX1_2, Q8TBB1)","pKd (LRRC7, Q96NW7)","pKd (MPP2, Q14168)","pKd (NHERF2_2, Q15599)","pKd (NHERF4_2, Q86UT5)","pKd (PDZRN4_1, Q6ZMN7)","pKd (PTPN13_1, Q12923)","pKd (PTPN3, P26045)","pKd (SCRIB_1, Q14160)","pKd (SCRIB_2, Q14160)",further results
"FHPLGADSQV [SLC2A1, P11166]",below the threshold,below the threshold,below the threshold,3.65,4.03,below the threshold,3.95,below the threshold,below the threshold,below the threshold,below the threshold,below the threshold,below the threshold,below the threshold,below the threshold,below the threshold,below the threshold,4.1,4.02,below the threshold,"pKd (SCRIB_3, Q14160): 3.58; pKd (SHANK1, Q9Y566): below the threshold; pKd (SIPA1L2, Q9P2F8): below the threshold; pKd (SNTG2, Q9NY99): below the threshold; pKd (SYNJ2BP, P57105): 4.46; pKd (TJP3_3, O95049): below the threshold"
"VDFPPKESSL [ACVR2A, P27037]",below the threshold,below the threshold,below the threshold,3.84,below the threshold,below the threshold,3.33,below the threshold,3.47,below the threshold,below the threshold,below the threshold,below the threshold,3.77,below the threshold,4.7,below the threshold,4.87,3.83,3.48,"pKd (SCRIB_3, Q14160): 4.88; pKd (SHANK1, Q9Y566): below the threshold; pKd (SIPA1L2, Q9P2F8): below the threshold; pKd (SNTG2, Q9NY99): 4.11; pKd (SYNJ2BP, P57105): 4.53; pKd (TJP3_3, O95049): below the threshold"
"SGSRPSATVV [HPV73-E6, Q82005]",below the threshold,below the threshold,below the threshold,4.03,4.11,below the threshold,4.14,below the threshold,3.8,below the threshold,4.06,3.54,below the threshold,below the threshold,below the threshold,below the threshold,3.61,below the threshold,below the threshold,3.56,"pKd (SCRIB_3, Q14160): below the threshold; pKd (SHANK1, Q9Y566): below the threshold; pKd (SIPA1L2, Q9P2F8): below the threshold; pKd (SNTG2, Q9NY99): below the threshold; pKd (SYNJ2BP, P57105): 3.71; pKd (TJP3_3, O95049): below the threshold"
